The results in this text go back to PMC8533965.

Assay [1] addresses zfVasa (amino acids 227–670), recombinant, GST tag removed (zebrafish).
Assay [2] addresses zebrafish Vasa, full length (amino acids 1–715), fused to the Venus N-terminal half (zfVasa-VN) (zebrafish). The experiment in a line: split reporter (BiFC, NanoBiT); BiFC with split Venus in living zebrafish embryos: Buc constructs with VC and zfVasa constructs with VN at their C-termini, mRNAs (200 ng/μL) co-injected at the one-cell stage, fluorescence imaged at 3 hpf by confocal microscopy; read-out percent of fluorescent embryos, three independent ….

The target is the same in assay [3]. The description is as above. The source holds these as a separate data set.
Assay [4] has as its target zfVasa S607A (full length) fused to the Venus N-terminal half (zebrafish). Described as above.
The target of assay [5] is zfVasa S608A (full length) fused to the Venus N-terminal half (zebrafish). The assay is described as above.
Assay [6] concerns the target zebrafish Vasa, full length (amino acids 1–715), fused to the Venus N-terminal half (zfVasa-VN) (zebrafish). The description is as above. The source holds these as a separate data set.
For assay [7], the target named is zfVasa-BBM (amino acids 600–625) fused to the Venus N-terminal half (zebrafish). Described as above.
In assay [8] the target is zfVasa eRecA-CTD (extended sequence at the C-terminus of RecA-CTD, amino acids 624–715) fused to the Venus N-terminal half (zebrafish). The assay is described as above.
The target of assay [9] is zfVasa RecA-CTD (amino acids 496–623) fused to the Venus N-terminal half (zebrafish). Described as above.
Assay [10] deals with zfVasa-HC (helicase core, amino acids 278–715) fused to the Venus N-terminal half (zebrafish). The assay is described as above.

Where two headings read alike, the source gives them in different places.

B1: Buc-VBM (amino acids 363–400), recombinant, GST tag removed (peptide)
chain: YPQVTQERQSVLSPSIDELSSRDEMFSTDVEDLEVVPG
For B1, the ATPase activity of 5-µM zfVasa with 2.5-mM ATP (NADH-coupled assay, absorption at 340 nm, 25 °C) on addition of 100-µM Buc-VBM, without RNA in assay [1] worked out at 2 fold.

B2: Buc-VBM (amino acids 363–400) D379L fused to the Venus C-terminal half (domain or fragment)
chain: YPQVTQERQSVLSPSILELSSRDEMFSTDVEDLEVVPG
Regarding B2, the values for the percent of fluorescent embryos (BiFC) in [2] and in [3] were 36% and 38%, respectively.

B3: Buc-VBM (amino acids 363–400) S389A fused to the Venus C-terminal half (domain or fragment)
chain: YPQVTQERQSVLSPSIDELSSRDEMFATDVEDLEVVPG
With B3, the percent of fluorescent embryos (BiFC) in [2] was found to be 43%.

B4: Buc-VBM (amino acids 363–400) E386L fused to the Venus C-terminal half (domain or fragment)
chain: YPQVTQERQSVLSPSIDELSSRDLMFSTDVEDLEVVPG
Take B4: in assay [2], the percent of fluorescent embryos (BiFC) is 48%.

B5: Buc amino acids 363–400 fused to the Venus C-terminal half (domain or fragment)
chain: YPQVTQERQSVLSPSIDELSSRDEMFSTDVEDLEVVPG
Turning to B5, the values for the percent of fluorescent embryos (BiFC) in assay [2] and in assay [3] were 70% and 72%, respectively.

B6: Buc-VBM (amino acids 363–400) R384G (non-conserved control) fused to the Venus C-terminal half (domain or fragment)
chain: YPQVTQERQSVLSPSIDELSSGDEMFSTDVEDLEVVPG
For B6, in [2], the percent of fluorescent embryos (BiFC) came out at 63%.

B7: Buc-CTD (amino acids 363–639) fused to the Venus C-terminal half (domain or fragment)
chain: YPQVTQERQSVLSPSIDELSSRDEMFSTDVEDLEVVPGHVYVGGGRLAEASDMPVRSRKELPSVDKTCSVCQKTCACCGSTLQDEVGMCKMAEHSHPERDEMSDQDCDYDLEAEVRSNCESPRVSKRKCCSRHALPSCGHHCAKHRHRKLLCEGQESCDLREQARVHPKGECCEEYGALAKADKRIQKGALCRPCIEQQWREGVVSDQENWASCGAKPRSWRQVTGPQDQGRTPLRRSTCKSIHQQRPRSEYNDYDETEFTYCQRGRGSMKKRGSRY
As for B7, the percent of fluorescent embryos (BiFC) in assay [3] came out at 77%.

B8: Buc amino acids 372–394 (highly conserved sequence, Buc-VBM) fused to the Venus C-terminal half (domain or fragment)
chain: SVLSPSIDELSSRDEMFSTDVED
As for B8, in assay [3], the percent of fluorescent embryos (BiFC) is 66%.

B9: Bucky ball, full length (amino acids 1–639), fused to the Venus C-terminal half (Buc-VC) (natural protein)
chain: MEGINNNSQPMGVGQPHHPVNHTRPFFYVQPPSQPYFMYQWPMNPYGHYGFPGPALHFGRPYMAPYQFMQYPGYVIPHAPMQPIDYRRINPHYPSVASYDLRVRHHFQNAGMHRETACSEVQTDPSDSVNKLIDKIESLKACELGSDKGPNNVVSSTPDVVQGEKLTRLNEDSNLEVATKECKEDPVTRPTTYSDSAYDAESSQGRLDECVFSDVLPLDSSSVHEEEEEEEKDVNEEDEPQTVADEICSQNEMSASTTSNVFCSGVQSIADPTECHDLEKLGDEQKQDIPSADAAAVIEPLISLSEDFDLPYQILRLPCNKTTTGLSLEREIDPLVYFDSPSTLLPPQNYLSSIGSAYSYSYYPQVTQERQSVLSPSIDELSSRDEMFSTDVEDLEVVPGHVYVGGGRLAEASDMPVRSRKELPSVDKTCSVCQKTCACCGSTLQDEVGMCKMAEHSHPERDEMSDQDCDYDLEAEVRSNCESPRVSKRKCCSRHALPSCGHHCAKHRHRKLLCEGQESCDLREQARVHPKGECCEEYGALAKADKRIQKGALCRPCIEQQWREGVVSDQENWASCGAKPRSWRQVTGPQDQGRTPLRRSTCKSIHQQRPRSEYNDYDETEFTYCQRGRGSMKKRGSRY
For B9, the percent of fluorescent embryos (BiFC) in assay [2] was 79%; in assay [4], 38%; in assay [5], 27%; in assay [3] it was 82%; in assay [6], 77%; in assay [7] it was 69%. Moreover, the results for the percent of fluorescent embryos (BiFC) in [8], in assay [9] and in assay [10] were 14%, 64% and 70%, respectively.
